In paper PMC11589680 (Nature Communications, 2024) one finds binding result and Kd data, which are given here for ten molecules.

Assay [1] has as its target T1, Retriever complex (VPS35L, VPS26C, VPS29) (human, UniProt Q7Z3J2;O14972;Q9UBQ0-2). Nature of the assay: pull-down.
The target of assay [2] is T1, Retriever complex (VPS35L, VPS26C, …). Nature of the assay: equilibrium pull-down.

T1 sequence (Q7Z3J2 whole entry, chain 1 of 2): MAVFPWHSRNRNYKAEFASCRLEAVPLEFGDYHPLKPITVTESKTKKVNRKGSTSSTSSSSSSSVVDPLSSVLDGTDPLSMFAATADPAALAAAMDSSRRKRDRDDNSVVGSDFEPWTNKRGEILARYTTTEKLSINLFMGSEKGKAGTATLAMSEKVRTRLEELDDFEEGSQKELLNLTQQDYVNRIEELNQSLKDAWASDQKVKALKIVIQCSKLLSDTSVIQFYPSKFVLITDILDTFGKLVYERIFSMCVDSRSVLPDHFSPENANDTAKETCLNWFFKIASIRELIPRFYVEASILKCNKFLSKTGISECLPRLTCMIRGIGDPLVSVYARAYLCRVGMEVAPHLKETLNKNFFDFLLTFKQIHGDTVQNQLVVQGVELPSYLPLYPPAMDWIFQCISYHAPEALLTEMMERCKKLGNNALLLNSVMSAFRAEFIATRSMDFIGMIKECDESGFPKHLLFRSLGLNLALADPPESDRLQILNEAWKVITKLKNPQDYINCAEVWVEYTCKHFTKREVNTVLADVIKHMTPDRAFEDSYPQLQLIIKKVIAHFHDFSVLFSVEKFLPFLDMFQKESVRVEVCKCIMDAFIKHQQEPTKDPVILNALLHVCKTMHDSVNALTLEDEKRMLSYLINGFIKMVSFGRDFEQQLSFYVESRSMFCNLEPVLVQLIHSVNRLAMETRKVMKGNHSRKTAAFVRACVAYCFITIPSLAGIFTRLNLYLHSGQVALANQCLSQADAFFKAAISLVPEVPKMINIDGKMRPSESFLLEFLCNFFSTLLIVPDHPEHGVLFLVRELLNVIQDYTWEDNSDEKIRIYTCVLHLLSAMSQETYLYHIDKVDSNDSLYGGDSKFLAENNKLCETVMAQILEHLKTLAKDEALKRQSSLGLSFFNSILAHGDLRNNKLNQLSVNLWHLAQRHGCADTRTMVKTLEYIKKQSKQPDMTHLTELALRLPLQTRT
T1 sequence (O14972 whole entry, chain 2 of 2): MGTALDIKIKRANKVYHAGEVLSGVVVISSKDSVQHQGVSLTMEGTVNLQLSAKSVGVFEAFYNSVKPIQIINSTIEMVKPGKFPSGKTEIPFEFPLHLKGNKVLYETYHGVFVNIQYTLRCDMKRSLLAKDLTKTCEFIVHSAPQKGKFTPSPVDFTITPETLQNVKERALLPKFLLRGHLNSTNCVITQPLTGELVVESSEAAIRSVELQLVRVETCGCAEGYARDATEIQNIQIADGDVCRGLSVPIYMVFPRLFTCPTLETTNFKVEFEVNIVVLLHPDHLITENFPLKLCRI

B1: GST-SNX17 (natural protein)
chain: MHFSIPETESRSGDSGGSAYVAYNIHVNGVLHCRVRYSQLLGLHEQLRKEYGANVLPAFPPKKLFSLTPAEVEQRREQLEKYMQAVRQDPLLGSSETFNSFLRRAQQETQQVPTEEVSLEVLLSNGQKVLVNVLTSDQTEDVLEAVAAKLDLPDDLIGYFSLFLVREKEDGAFSFVRKLQEFELPYVSVTSLRSQEYKIVLRKSYWDSAYDDDVMENRVGLNLLYAQTVSDIERGWILVTKEQHRQLKSLQEKVSKKEFLRLAQTLRHYGYLRFDACVADFPEKDCPVVVSAGNSELSLQLRLPGQQLREGSFRVTRMRCWRVTSSVPLPSGSTSSPGRGRGEVRLELAFEYLMSKDRLQWVTITSPQAIMMSICLQSMVDELMVKKSGGSIRKMLRRRVGGTLRRSDSQQAVKSPPLLESPDATRESMVKLSSKLSAVSLRGIGSPSTDASASDVHGNFAFEGIGDEDL
Regarding B1, in assay [1], the binding result is on record as “binds”.

B2: untagged full-length SNX17 (natural protein)
chain: B1 chain
With B2, the binding result in assay [1] is given as “binds”.

B3: GST-tagged CT tail of PATE1 (last 20 amino acids) (peptide)
chain: SVYLVNFRCCRSHDLCNEDL
As for B3, the binding result in assay [1] is listed as “binds”.

B4: GST-SNX17 CT tail, −4 position to N (peptide)
chain: ASASDVHGNFAFEGIGNEDL
With B4, the binding result in assay [1] is reported as “binds”.

B5: GST-tagged CT tail of LRMDA (last 20 amino acids) (peptide)
chain: RYVYYGKNSEGNRFIRDDQL
Take B5: the binding result in assay [1] is reported as “binds”.

B6: GST-SNX17 CT (GST-tagged tail peptide, last 20 residues of SNX17) (peptide)
chain: ASASDVHGNFAFEGIGDEDL
The Kd is the constant that tells how readily two partners part at equilibrium. A lower Kd goes with higher affinity. Molecule B6 had a Kd in assay [2] of approximately 110 nM.

B7: GST-SNX17 CT tail, −6 position to V (peptide)
chain: ASASDVHGNFAFEGVGDEDL
Regarding B7, in assay [1], the binding result was “binds”.

B8: GST-tagged CT tail of SNX31 (last 20 amino acids) (peptide)
chain: SKIKIAKDDCVFGNIKEEDL
As for B8, the binding result in assay [1] was “binds”.

B9: GST-SNX17 CT tail, −6 position to L (peptide)
chain: ASASDVHGNFAFEGLGDEDL
With B9, the binding result in assay [1] is given as “binds”.

B10: GST-SNX17 CT tail, −4 position to Q (peptide)
chain: ASASDVHGNFAFEGIGQEDL
As for B10, the binding result in assay [1] was “binds”.
